US8883964B2, “Compositions comprising modified collagen and uses therefor” (The Johns Hopkins University, priority 2004, dated 2014)
Square brackets hold non-standard residues; d marks the D form. Ends that are not written are not given here. Hyp = O=C(O)[C@@H]1C[C@@H](O)CN1

Key:
[1] = Dynamic light scattering of CMP functionalized gold NPs; type: physicochemical
Procedure: The thickness of the peptide layer on the gold NP surface was determined by dynamic light scattering (DLS) (FIG. 15). The peptide layer thicknesses of NP-1, NP-2 and NP-3 were 2.0 nm, 3.65 nm and 6.85 nm, respectively (Table 3).
Purified Cys-CMP (peptides 1′˜4′) (0.5 mL, 500 μM) was added to gold nanoparticle solution (5 mL, 17 nM), and the reaction mixture was incubated at room temperature for twenty-four hours. Excess CMPs were removed by repeated centrifugation and washing in deionized water.

[2] = Measurement of number of peptides per NP (passivation number); type: physicochemical
Procedure: The average number of CMPs on the NPs was determined by measuring the concentrations of free CMPs remaining in solution after the removal of the NPs from a series of incubation mixtures with varying CMP/NP ratios (FIG. 16 and Table 3).^36 The numbers of CMPs immobilized on the NP surfaces were 582, 444, and 399 for NP-1, NP-2, and NP-3, respectively. […] This may have been caused by surface anchoring of the chain ends that prohibited the staggered arrangement of the peptide chains required for the formation of triple helix.
Seven 10 μM Cys-CMP solutions with varying concentrations of citrate-stabilized gold NP (2˜14 nM) were prepared. The mixtures were incubated for 2 hours at 25° C. and the gold NPs were removed by centrifugation. The concentrations of free peptides remaining in the supernatant were determined from the UV-Vis absorbance at 215 nm with citrate ion background subtraction. The number of peptides per Au NP was calculated from the slope of the linear fit of the data points. (FIG. 17)

type I collagen fibers = target: T1, type I collagen fibers (Bos taurus, UniProt P02453+P02465); experiment: TEM analysis of NP binding to reconstituted type I collagen fibers; set-up: species or system bovine; settings: phosphate buffer at 25° C.
T1 construct: natural collagen (acid soluble, bovine type I); purchased Sigma
T1 sequence (P02453 162-1217 limits assumed): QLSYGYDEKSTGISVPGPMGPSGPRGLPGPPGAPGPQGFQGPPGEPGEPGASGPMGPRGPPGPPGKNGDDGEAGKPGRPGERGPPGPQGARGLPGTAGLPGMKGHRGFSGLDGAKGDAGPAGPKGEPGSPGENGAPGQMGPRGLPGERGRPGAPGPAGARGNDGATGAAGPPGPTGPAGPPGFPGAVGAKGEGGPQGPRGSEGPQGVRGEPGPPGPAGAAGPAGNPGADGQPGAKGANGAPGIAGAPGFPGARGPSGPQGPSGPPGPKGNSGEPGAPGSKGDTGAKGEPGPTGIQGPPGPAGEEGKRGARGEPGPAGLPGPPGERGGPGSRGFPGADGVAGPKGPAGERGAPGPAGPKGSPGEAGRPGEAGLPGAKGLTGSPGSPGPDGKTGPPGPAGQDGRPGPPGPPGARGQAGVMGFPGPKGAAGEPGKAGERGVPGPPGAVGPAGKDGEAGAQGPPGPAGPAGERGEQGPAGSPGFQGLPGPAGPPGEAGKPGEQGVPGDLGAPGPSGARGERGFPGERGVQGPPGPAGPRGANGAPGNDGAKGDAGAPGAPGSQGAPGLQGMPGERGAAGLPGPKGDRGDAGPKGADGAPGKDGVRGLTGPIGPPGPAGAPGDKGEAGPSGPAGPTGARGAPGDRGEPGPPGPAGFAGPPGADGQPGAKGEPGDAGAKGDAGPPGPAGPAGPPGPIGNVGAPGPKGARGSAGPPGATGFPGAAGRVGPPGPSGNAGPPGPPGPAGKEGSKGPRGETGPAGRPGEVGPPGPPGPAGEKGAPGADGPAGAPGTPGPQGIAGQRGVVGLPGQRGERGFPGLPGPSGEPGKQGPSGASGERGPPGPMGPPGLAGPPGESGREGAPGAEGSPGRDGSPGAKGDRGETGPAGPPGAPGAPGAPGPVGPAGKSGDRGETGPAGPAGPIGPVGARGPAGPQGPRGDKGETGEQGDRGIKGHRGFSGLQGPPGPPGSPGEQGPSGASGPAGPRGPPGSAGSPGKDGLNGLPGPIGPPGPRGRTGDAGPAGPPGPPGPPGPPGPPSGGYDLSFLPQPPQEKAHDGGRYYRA
T1 sequence (P02465 80-1117 limits assumed): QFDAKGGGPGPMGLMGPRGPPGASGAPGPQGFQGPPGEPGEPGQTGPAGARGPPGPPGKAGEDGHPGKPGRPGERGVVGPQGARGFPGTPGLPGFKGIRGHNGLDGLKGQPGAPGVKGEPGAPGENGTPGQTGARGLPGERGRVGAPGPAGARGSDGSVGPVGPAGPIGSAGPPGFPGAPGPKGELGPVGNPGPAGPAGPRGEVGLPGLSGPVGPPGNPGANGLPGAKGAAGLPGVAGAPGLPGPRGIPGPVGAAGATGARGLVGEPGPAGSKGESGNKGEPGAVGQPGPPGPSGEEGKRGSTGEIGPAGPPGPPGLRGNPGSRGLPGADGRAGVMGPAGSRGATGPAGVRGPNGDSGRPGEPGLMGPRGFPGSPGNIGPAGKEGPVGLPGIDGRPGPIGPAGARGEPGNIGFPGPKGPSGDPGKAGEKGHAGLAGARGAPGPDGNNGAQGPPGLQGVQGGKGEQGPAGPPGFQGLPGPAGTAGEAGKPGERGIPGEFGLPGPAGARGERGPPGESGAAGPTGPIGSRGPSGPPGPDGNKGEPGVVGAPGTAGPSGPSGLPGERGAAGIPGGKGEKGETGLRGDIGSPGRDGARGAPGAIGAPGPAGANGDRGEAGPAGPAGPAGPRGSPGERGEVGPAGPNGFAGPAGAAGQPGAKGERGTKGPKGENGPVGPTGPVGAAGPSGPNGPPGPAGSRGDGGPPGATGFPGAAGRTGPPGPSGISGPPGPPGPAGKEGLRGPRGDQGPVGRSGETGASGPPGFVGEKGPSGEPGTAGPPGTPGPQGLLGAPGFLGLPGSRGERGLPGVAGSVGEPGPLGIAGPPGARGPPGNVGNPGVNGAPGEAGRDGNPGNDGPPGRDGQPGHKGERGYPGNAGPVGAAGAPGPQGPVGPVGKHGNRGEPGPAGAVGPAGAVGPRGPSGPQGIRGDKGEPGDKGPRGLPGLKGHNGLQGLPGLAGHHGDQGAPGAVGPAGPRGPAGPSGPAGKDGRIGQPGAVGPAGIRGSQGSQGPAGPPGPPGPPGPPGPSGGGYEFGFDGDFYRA
Procedure: Moreover, NP-3 seemed to bind to defined locations within the gap regions along the fiber axis (FIG. 19C). Due to the large particle size and limitations of transmission electron microscopy resolution, the exact locations of these binding sites could not be determined. Twice as many NP-3 particles per unit area was found in the gap regions (dark bands) than on the overlap regions (light bands) of the collagen fibers. This difference was abolished at incubation temperatures above 40° C. (FIG. 20).
Collagen fibers were regenerated by mixing 0.5 mL of acid soluble type I collagen (1 mg/mL) in 50 mM acetic acid solution with 1 mL of sodium phosphate buffer (10 mM, pH 8.25). The mixture was incubated at room temperature for 12 hours.
A drop (8 μL) of type I collagen solution (0.3 mg/mL in PBS containing 1% BSA) was added to a holey carbon TEM grid. NP-3 solution (3 nM in PBS containing 1% BSA) was added to the grid and incubated for 5 minutes at room temperature or at 40° C., followed by washing with deionized water. The collagen fibers were stained with uranyl acetate (1%).

NP-4: gold nanoparticle functionalized with scrambled peptide 4′ (CGPG[Hyp]P[Hyp]PPGPP[Hyp]G[Hyp][Hyp]P[Hyp]G[Hyp]GG; also: N-terminal Cys bound to gold nanoparticle surface)
Particle Size by DLS [1]: 16.2 ± 3.1 nm
Measured Peptide layer thickness ([1]; DLS): 1.5 nm
Number of peptides per NP [2]: 524 ± 59
binding to type I collagen fibers (type I collagen fibers): little binding
